Measurements reported in patent US20240069021A1 (ASAHI KASEI, published 2024).

Experiments:
[1] = target: ribosomal protein L7/L12 of Citrobacter freundii (CF), recombinant tagged fusion protein (Citrobacter freundii); test: ELISA on coated recombinant L7/L12, antibody 10 ug/mL
[2] = target: ribosomal protein L7/L12 of Staphylococcus aureus (SA), recombinant tagged fusion protein (Staphylococcus aureus); test: as above
[3] = target: ribosomal protein L7/L12 of Klebsiella pneumoniae (KP), recombinant tagged fusion protein (Klebsiella pneumoniae); test: as above
[4] = target: T1, ribosomal protein L7/L12 of Bacillus subtilis (BS), recombinant tagged fusion protein (Bacillus subtilis, UniProt P02394 1-123); test: as above
T1 sequence: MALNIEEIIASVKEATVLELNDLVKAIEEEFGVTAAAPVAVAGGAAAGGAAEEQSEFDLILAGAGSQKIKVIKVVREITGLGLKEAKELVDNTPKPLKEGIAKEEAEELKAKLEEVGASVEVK

[5] = target: ribosomal protein L7/L12 of Salmonella enterica (SE), recombinant tagged fusion protein (Salmonella enterica); test: as above
[6] = target: T2, ribosomal protein L7/L12 of Pseudomonas aeruginosa (PA), recombinant tagged fusion protein (Pseudomonas aeruginosa, UniProt Q9HWC8 1-122); test: as above
T2 sequence: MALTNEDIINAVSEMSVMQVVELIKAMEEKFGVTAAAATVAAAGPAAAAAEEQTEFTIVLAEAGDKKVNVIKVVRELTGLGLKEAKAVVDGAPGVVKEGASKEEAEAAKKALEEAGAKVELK

[7] = target: ribosomal protein L7/L12 of Serratia liquefaciens (SL), recombinant tagged fusion protein (Serratia liquefaciens); test: as above
[8] = target: ribosomal protein L7/L12 of Rahnella aquatilis (RA), recombinant tagged fusion protein (Rahnella aquatilis); test: as above
[9] = target: ribosomal protein L7/L12 of Listeria monocytogenes (LM), recombinant tagged fusion protein (Listeria monocytogenes); test: as above
[10] = target: T3, ribosomal protein L7/L12 of Escherichia coli (EC), recombinant tagged fusion protein (Escherichia coli, UniProt P0A7K2 1-121); test: as above
[11] = target: ribosomal protein L7/L12 of Enterobacter cloacae (ECL), recombinant tagged fusion protein (Enterobacter cloacae); test: as above
[12] = target: T3, ribosomal protein L7/L12 of Escherichia …; test: ELISA on coated recombinant L7/L12 (10 ng/mL), antibody 10 ug/mL, A450; + means absorbance >= 0.3

B1: Generic Antibody A (PA51B2) (antibody, V domains shown)
VH: QVQLQQPGSVLVRPGASVKLSCKPSGYTFTGSWMHWTKQRPGQGLEWIGEIHPYSGNTNYNEKFRVKATLTVDTSSSTTYVDLSSLTSDDSAVYYCASGDFDAGFTYWGQGTLVTVSA
VL: DIVLTQSPASLAVSLGRRATISCKASQSVDYDGDSYMNWYQQKPGQPPKLLIYVASNLESGIPARFSGSGSGTDFTLNIHPVEEEDAATYYCQQTNEDPFTFGAGTKLELK
absorbance (450 nm) [1]: ≥ 0.3 | absorbance (450 nm) [2]: ≥ 0.3 | absorbance (450 nm) [3]: ≥ 0.3 | absorbance (450 nm) [4]: ≥ 0.3 | absorbance (450 nm) [5]: ≥ 0.3 | absorbance (450 nm) [6]: ≥ 0.3 | absorbance (450 nm) [7]: ≥ 0.3 | absorbance (450 nm) [8]: ≥ 0.3 | absorbance (450 nm) [9]: ≥ 0.3 | absorbance (450 nm) [10]: ≥ 0.3 | absorbance (450 nm) [11]: ≥ 0.3

B2: Specific Antibody A (HI142D11.3) (antibody, V domains shown)
VH: EVQLQQSGAELVKPGASVKLSCTASGFNIKDTYIHWVKQRPEQGLEWIGRIDPANGNTKYDPKFQGKATITADTSSNTAYLQLSSLTSEDTAVYYCPRPYGYVGWYFDVWGAGTTVTVSS
VL: DIVMTQSHKFMSTSVGDRVSITCKASQDVRNAVAWYQQKPGQSPKLLISSASYRYSGVPDRFTGSGSGTDFTFTISSVQAEDLAVYYCQQHYDTPPTFGGGTKLEIK
binding result [12]: binds

B3: Generic Antibody C (CP141A190.1) (antibody, V domains shown)
VH: QVQLQQPGAELVKPGASVKLSCKTSGYNFTSNWIHWVKQRPGQGLEWIGEINPSNGRANYNEKFKNKATLTVDKSSSTAFMHLSSLTSEDSAVYFCSRGDFDEGFTYWGQGTLVTVSA
VL: QIVLTQSPAIMSASLGERVTMTCTASSNVNSDYLHWYQQKPGSSPRLWIYTTSNLASGVPTRFSGNGSGTSYSLTISSMEAEDAATYYCHQYHRSPRTFGGGTKLEIK
absorbance (450 nm) [1]: ≥ 0.3 | absorbance (450 nm) [2]: ≥ 0.3 | absorbance (450 nm) [3]: ≥ 0.3 | absorbance (450 nm) [4]: ≥ 0.3 | absorbance (450 nm) [5]: ≥ 0.3 | absorbance (450 nm) [6]: ≥ 0.3 | absorbance (450 nm) [7]: ≥ 0.3 | absorbance (450 nm) [8]: ≥ 0.3 | absorbance (450 nm) [9]: ≥ 0.3 | absorbance (450 nm) [10]: ≥ 0.3 | absorbance (450 nm) [11]: ≥ 0.3

B4: Generic Antibody B (LP54A3) (antibody, V domains shown)
VH: EVQLQQSGAELVKPGASVRLSCSASGFNIKDTYMHWMRQRPEQGLEWIGRIDPANGNAKYDPKFQVKATITADTSSNTASLQFSSLTSEDTAVYFCASESLDDMYYFDYWGQGTTLTVSS
VL: DIVMTQSQKFMSTSVGDRVSVTCKASQNVGVNVAWYQQKPGQSPKALIYSASYRYSGVPDRFTGSGSGTDFTLTISNVQSEDLAEYFCQQYHSYLYTFGGGTKLEIK
absorbance (450 nm) [4]: ≥ 0.3 | absorbance (450 nm) [6]: ≥ 0.3 | absorbance (450 nm) [10]: ≥ 0.3

B5: Specific Antibody D (EC50C1) (antibody, V domains shown)
VH: QVQLQQSGAELAKPGASVKMSCKASGYTFTSYWMNWVKQRPGQGLEWIGYINPNTGYTEYDQKFKDKATLTADKSSSTAYMQLSSLTSEDSAVYYCARYWAYFEYWGQGTTLTVSS
VL: DIKMTQSPSSMYASLGERVTITCKASQDINSYLSWFQQKPGKSPKTLIYRANRLVDGVPSRFSGSGSGQDYSLTISSLEYEDMGIYYCLQYDEFRTFGGGTKLEIK
binding result [12]: binds
